This passage reports Kd results from publication PMC10646045, “Multiplexed detection of viral antigen and RNA using nanopore sensing and encoded molecular probes”.

For data set [1], the target named is SARS-CoV-2 nucleocapsid protein (SARS-CoV-2, UniProt P0DTC9 1-419). Kind of data set: SPR. To be noted: protein: commercial.
In data set [2] the target is SARS-CoV-2 spike protein S1 region (SARS-CoV-2, UniProt P0DTC2 13-685). Kind of data set: SPR. To be noted: protein: commercial.

B1: NBA (ssDNA)
DNA: GCTGGATGTCGCTTACGACAATATTCCTTAGGGGCACCGCTACATTGACACATCCAGC
By Kd is commonly meant the constant that tells how readily two partners part at equilibrium. As for B1, in data set [1], the Kd amounted to 0.73 nM.

B2: SBA (ssDNA)
DNA: CACGCATAACGTCTTGCGGGGCGGCGGGTTGAGAGGATGTCGGGTGGTTATGCGTG
B2 yielded a Kd in data set [2] of 9.86 nM.
